Laboratory results reported in patent publication US12077763B2, “RNA-based control of powdery mildew” (Greenlight Biosciences, Inc., priority 2021, dated 2024).

B1: GS3302 (nucleic acid)
sense: UCUGAAGAGCCCUACCACUAUAAAGGUGUCAAGCUAGGUCAUUGAGAGGAUUGAGUUACGAAAUUUGAUUGCAGCCACGCCUUCGACUUCAACCGAGAAGAGUUCCAAUCUCCCUCUUAGACGCAGGACUACUCUCACGAUACUUCUGUCUCUACUUCUUCUCAUGAGCACGCUAAUACUCUCUAAGCCUCCGUUGAUGUGUUGAAAGACAGGCACCUCAGUUUUGAUUCUAUUCAGCUCGGCAAACAUG
antisense: CAUGUUUGCCGAGCUGAAUAGAAUCAAAACUGAGGUGCCUGUCUUUCAACACAUCAACGGAGGCUUAGAGAGUAUUAGCGUGCUCAUGAGAAGAAGUAGAGACAGAAGUAUCGUGAGAGUAGUCCUGCGUCUAAGAGGGAGAUUGGAACUCUUCUCGGUUGAAGUCGAAGGCGUGGCUGCAAUCAAAUUUCGUAACUCAAUCCUCUCAAUGACCUAGCUUGACACCUUUAUAGUGGUAGGGCUCUUCAGA
B2: GS3297 (nucleic acid)
sense: GAGAAGAGGUCCGUGAGAAUUUUGACUCAUCUUUUGCCGCUCUUUAUCAUGAUCUUGAUAUGGGAUUUACACCGAUCAACUUUACAUUUUACUGGGCACCUCUACCUUGGAAUCGUGCUCGUGAUCAUGCCCAAAGAACUGUUGCUAGGACUUAUAUGAAUAUAAUCCAAGCUCGUACCCUCCUCUUCCCCUUCCCCUUCAUUGAACCUCGCUCCAAGGGGGCUUUAUGGGAAUCUGCCUCGUAGUAUAAAGUUCUGCAGCUGGCUCUACGGAUUGCAUCUACAACAACUACAACAUCAUCAUCAUCAUCAUCUUCAUCUUCAUCUUCUCCACCUUCAUAAGCUUCUACGUUUU
antisense: AAAACGUAGAAGCUUAUGAAGGUGGAGAAGAUGAAGAUGAAGAUGAUGAUGAUGAUGAUGUUGUAGUUGUUGUAGAUGCAAUCCGUAGAGCCAGCUGCAGAACUUUAUACUACGAGGCAGAUUCCCAUAAAGCCCCCUUGGAGCGAGGUUCAAUGAAGGGGAAGGGGAAGAGGAGGGUACGAGCUUGGAUUAUAUUCAUAUAAGUCCUAGCAACAGUUCUUUGGGCAUGAUCACGAGCACGAUUCCAAGGUAGAGGUGCCCAGUAAAAUGUAAAGUUGAUCGGUGUAAAUCCCAUAUCAAGAUCAUGAUAAAGAGCGGCAAAAGAUGAGUCAAAAUUCUCACGGACCUCUUCUC
B3: GS3298 (nucleic acid)
sense: AUGCCUUACAAGGAGAAGAGGUCCGUGAGAAUUUUGACUCAUCUUUUGCCGCUCUUUAUCAUGAUCUUGAUAUGGGAUUUACACCGAUCAACUUUACAUUUUACUGGGCACCUCUACCUUGGAAUCGUGCUCGUGAUCAUGCCCAAAGAACUGUUGCUAGGACUUAUAUGAAUAUAAUCCAAGCUCGUAGAGAAGAGAAAACGUCAACAACCCCCCUCCUCUUCCCCUUCCCCUUCAUUGAACCUCGCUCCAAGGGGGCUUUAUGGGAAUCUGCCUCGUAGUAUAAAGUUCUGCAGCUGGCUCUACGGAUUGCAUCUACAACAACUACAACAUCAUCAUCAUCAUCAUCUUCAUCUUCAUCUUCUCCACCUUCAUAAGCUUCUACGUUUUUGCAUGUUCAA
antisense: UUGAACAUGCAAAAACGUAGAAGCUUAUGAAGGUGGAGAAGAUGAAGAUGAAGAUGAUGAUGAUGAUGAUGUUGUAGUUGUUGUAGAUGCAAUCCGUAGAGCCAGCUGCAGAACUUUAUACUACGAGGCAGAUUCCCAUAAAGCCCCCUUGGAGCGAGGUUCAAUGAAGGGGAAGGGGAAGAGGAGGGGGGUUGUUGACGUUUUCUCUUCUCUACGAGCUUGGAUUAUAUUCAUAUAAGUCCUAGCAACAGUUCUUUGGGCAUGAUCACGAGCACGAUUCCAAGGUAGAGGUGCCCAGUAAAAUGUAAAGUUGAUCGGUGUAAAUCCCAUAUCAAGAUCAUGAUAAAGAGCGGCAAAAGAUGAGUCAAAAUUCUCACGGACCUCUUCUCCUUGUAAGGCAU
B4: GS3301 (nucleic acid)
sense: CAACAGGGACCAGUUACCCUACACCUACUGGAGGUUACUCUGAAGAGCCCUACCACUAUAAAGGUGUCAAGCUAGGUCAUUGAGAGGAUUGAGUUACGAAAUUUGAUUGCAGCCACGCCUUCGACUUCAACCGAGAAGAGUUCCAAUCUCCCUCUUAGACGCAGGACUACUCUCACGAUACUUCUGUCUCUACUUCUUCUCAUGAGCACGCUAAUACUCUCUAAGCCUCCGUUGAUGUGUUGAAAGACAGGCACCUCAGUUUUGAUUCUAUUCAGCUCGGCAAACAUGUUGUGUACAUUCAUAGACUGAAUUUCUUUUUUAUUAUUU
antisense: AAAUAAUAAAAAAGAAAUUCAGUCUAUGAAUGUACACAACAUGUUUGCCGAGCUGAAUAGAAUCAAAACUGAGGUGCCUGUCUUUCAACACAUCAACGGAGGCUUAGAGAGUAUUAGCGUGCUCAUGAGAAGAAGUAGAGACAGAAGUAUCGUGAGAGUAGUCCUGCGUCUAAGAGGGAGAUUGGAACUCUUCUCGGUUGAAGUCGAAGGCGUGGCUGCAAUCAAAUUUCGUAACUCAAUCCUCUCAAUGACCUAGCUUGACACCUUUAUAGUGGUAGGGCUCUUCAGAGUAACCUCCAGUAGGUGUAGGGUAACUGGUCCCUGUUG
B5: GS3300 (nucleic acid)
sense: GUAUCAACCAUUGCCUCUCCAAACCUUUCACCAACAACUUCCUUUUCAUCUUUUGUACGAACAGAAACGCCUGAUUCCAGUCUGCCAUUUAUAGAAAAUCCAGUGGCUAGACAAAAUGCACAUUGUAGUAGUAAGAGUGUUGGCAAUGGAAAUGGAAUUUUUAACUUGGACAUGAAUCUUUUGGCUUCUGCUGCUAUUAGGGUGGAAGGGAAUCACUCAUCAAACGCUUGUCAUCUCCCCCGAUACAAUAAAUCAUGCUGCGACCUCAGUGCGUACAAGAGUCGUUCUCAUUUUGCCUCAUCAUCACUUGUUCAGUCUCAUCCACCUCCGACAUUAGACAAGCUCAAUCAUUGCAUUAAGAGGUAUAUGAAGCGUUCACGAACUGACU
antisense: AGUCAGUUCGUGAACGCUUCAUAUACCUCUUAAUGCAAUGAUUGAGCUUGUCUAAUGUCGGAGGUGGAUGAGACUGAACAAGUGAUGAUGAGGCAAAAUGAGAACGACUCUUGUACGCACUGAGGUCGCAGCAUGAUUUAUUGUAUCGGGGGAGAUGACAAGCGUUUGAUGAGUGAUUCCCUUCCACCCUAAUAGCAGCAGAAGCCAAAAGAUUCAUGUCCAAGUUAAAAAUUCCAUUUCCAUUGCCAACACUCUUACUACUACAAUGUGCAUUUUGUCUAGCCACUGGAUUUUCUAUAAAUGGCAGACUGGAAUCAGGCGUUUCUGUUCGUACAAAAGAUGAAAAGGAAGUUGUUGGUGAAAGGUUUGGAGAGGCAAUGGUUGAUAC
B6: GS3303 (nucleic acid)
sense: UUACCCUACACCUACUGGAGGUUACUCUGAAGAGCCCUACCACUAUAAAGGUGUCAAGCUAGGUCAUUGAGAGGAUUGAGUUACGAAAUUUGAUUGCAGCCACGCCUUCGACUUCAACCGAGAAGAGUUCCAAUCUCCCUCUUAGACGCAGGACUACUCUCACGAUACUUCUGUCUCUACUUCUUCUCAUGAGCACGCUAAUACUCUCUAAGCCUCCGUUGAUGUGUUGAAAGACAGGCACCUCAGUUUUGAUUCUAUUCAGCUCGGCAAACAUGUUGUGUACAUUCAUAGACUGAAUUU
antisense: AAAUUCAGUCUAUGAAUGUACACAACAUGUUUGCCGAGCUGAAUAGAAUCAAAACUGAGGUGCCUGUCUUUCAACACAUCAACGGAGGCUUAGAGAGUAUUAGCGUGCUCAUGAGAAGAAGUAGAGACAGAAGUAUCGUGAGAGUAGUCCUGCGUCUAAGAGGGAGAUUGGAACUCUUCUCGGUUGAAGUCGAAGGCGUGGCUGCAAUCAAAUUUCGUAACUCAAUCCUCUCAAUGACCUAGCUUGACACCUUUAUAGUGGUAGGGCUCUUCAGAGUAACCUCCAGUAGGUGUAGGGUAA
B7: GS3299 (nucleic acid)
sense: CACCAGGAUCCACCUAAAGAUGAGCCAACCGAUCAGAAGUCUCUGGAGCUGAGGAGAACCUUAUUUUAUAGUAUUUACUCUCUUGAUAGAUCUGUCAGUAUGGUUCACGCGCGCUCUUUUUCAUUUACCGACGAUUCGACUAGCGUUACUUUCCCAUCCAUUAAGAACGAGAAAUUACCAGUCGACACCAAAUUAAAACUAGGUAGGAAAUUCAAGAUUCAAUCCUCACUUUUAUUCAAACUUCGAAAGAUUCAGUCUUCAUGGUAUCACGAGCUUUUUCAAUCCAAAAAUGAUUUUAUAACAAAUCCAUCAACAUAUAUUCAGAAAGUGUGUCAAGAAAUGCAAGCAUGGGCUCAGUCGAUUCCCGAAUAUUUACCCACUCAUAUCAAAAAUUAUUU
antisense: AAAUAAUUUUUGAUAUGAGUGGGUAAAUAUUCGGGAAUCGACUGAGCCCAUGCUUGCAUUUCUUGACACACUUUCUGAAUAUAUGUUGAUGGAUUUGUUAUAAAAUCAUUUUUGGAUUGAAAAAGCUCGUGAUACCAUGAAGACUGAAUCUUUCGAAGUUUGAAUAAAAGUGAGGAUUGAAUCUUGAAUUUCCUACCUAGUUUUAAUUUGGUGUCGACUGGUAAUUUCUCGUUCUUAAUGGAUGGGAAAGUAACGCUAGUCGAAUCGUCGGUAAAUGAAAAAGAGCGCGCGUGAACCAUACUGACAGAUCUAUCAAGAGAGUAAAUACUAUAAAAUAAGGUUCUCCUCAGCUCCAGAGACUUCUGAUCGGUUGGCUCAUCUUUAGGUGGAUCCUGGUG
B8: GS3304 (nucleic acid)
sense: GUUACGCAUCGCCAACAGGGACCAGUUACCCUACACCUACUGGAGGUUACUCUGAAGAGCCCUACCACUAUAAAGGUGUCAAGCUAGGUCAUUGAGAGGAUUGAGUUACGAAAUUUGAUUGCAGCCACGCCUUCGACUUCAACCGAGAAGAGUUCCAAUCUCCCUCUUAGACGCAGGACUACUCUCACGAUACUUCUGUCUCUACUUCUUCUCAUGAGCACGCUAAUACUCUCUAAGCCUCCGUUGAUGUGUUGAAAGACAGGCACCUCAGUUUUGAUUCUAUUCAGCUCGGCAAACAUGUUGUGUACAUUCAUAGACUGAAUUUCUUUUUUAUUAUUUUUUUCCAAAUA
antisense: UAUUUGGAAAAAAAUAAUAAAAAAGAAAUUCAGUCUAUGAAUGUACACAACAUGUUUGCCGAGCUGAAUAGAAUCAAAACUGAGGUGCCUGUCUUUCAACACAUCAACGGAGGCUUAGAGAGUAUUAGCGUGCUCAUGAGAAGAAGUAGAGACAGAAGUAUCGUGAGAGUAGUCCUGCGUCUAAGAGGGAGAUUGGAACUCUUCUCGGUUGAAGUCGAAGGCGUGGCUGCAAUCAAAUUUCGUAACUCAAUCCUCUCAAUGACCUAGCUUGACACCUUUAUAGUGGUAGGGCUCUUCAGAGUAACCUCCAGUAGGUGUAGGGUAACUGGUCCCUGUUGGCGAUGCGUAAC

Each molecule was assayed on E. necator (assay: Leaf disc assay, dry inoculum (settling tower), decrease in disease severity / hyphal growth (Example 2)). Conditions: decrease in disease severity (hyphal growth) relative to untreated control; time point 1 (untreated control hyphal growth ≥50%); value ± SE.

| Molecule | % decrease =/− SE TP1 |
| --- | --- |
| B1 | 31 ± 5% |
| B2 | 12 ± 6% |
| B3 | 22 ± 5% |
| B4 | 32 ± 5% |
| B5 | 9 ± 5% |
| B6 | 35 ± 5% |

Same assay, conditions: decrease in disease severity (hyphal growth) relative to untreated control; time point 2; value ± SE

| Molecule | % decrease =/− SE TP2 |
| --- | --- |
| B1 | 22 ± 7% |
| B7 | 14 ± 7% |
| B2 | 22 ± 7% |
| B3 | 7 ± 7% |
| B8 | 6 ± 7% |
| B4 | 0 ± 9% |
| B5 | 4 ± 8% |
| B6 | 15 ± 9% |
